Measurements from US10874712B2, “Methods, compounds and compositions for modulating blood brain barrier integrity and re-myelination” (University Health Network, priority 2015, dated 2020).
Entries after “also recorded” stand apart in the source; their conditions may differ.

B1: sRGMa: mouse RGMa cloned with His tag replacing the GPI-anchor, secreted soluble protein (protein)
chain: PHLRTFTDHFQTCKVQGAWPLIDNNYLNVQVTNTPVLPGSAATATSKLTIIFKNFQECVDQKVYQAEMDELPSAFADGSKNGGDKHGANSLKITEKVSGQHVEIQAKYIGTTIVVRQVGRYLTFAVRMPEEVVNAVEDRDSQGLYLCLRGCPLNQQIDFQAFRANAESPRRPAAASPSPVVPETFPYETAVAKCKEKLPVEDLYYQACVFDLLTTGDVNFTLAAYYALEDGKMLHSNKDKLHLFERTRELPGAVAAAA
modifications: left off: large carriers
notes: mouse RGMa cloned with His tag replacing the GPI-anchor, secreted soluble protein

What was measured:
b.end3 cells = experiment: In vitro BBB permeability, Dextran-FITC extravasation in Boyden chamber; type: cell-based, mouse; details: b.end3 monolayer; for extravasation of Dextran-FITC in sRGMa-treated cells: 4 h pre-treatment (10 μg/mL sRGMc, 10 μg/mL C3 Transferase or 10 μM Y27632), then RGMa 18 h
Method: (A) Neogenin expression was analyzed on the membrane of b.end3 cells using immunohistochemical staining and by Western blot. (B) Crystal violet staining showing the b.end3 cell monolayer, (C) Representative diagram of the boyden chamber set up and (D) BBB permeability in b.end3 cells. Serum-starved cells were incubated for 4 h with RGMa (10 μg/ml), C3 Transferase (10 μg/mL) or Y27632 (10 μM) or sRGMc (10 μg/mL) and were then incubated with sRGMa (5 μg/mL) for 18 h followed by seeding of Dextran-FITC onto the upper chamber. Extravasation was measured over a period of 60 min as described in the Examples. n=3, performed in triplicates.
b.End3 endothelial cells were used to generate an in vitro model of the human EC barrier lining the choroid plexus. Briefly, b.end3 cells were plated on polyethylene-coated 0.4 μm pore size Boyden chambers (Corning) at a density of 2×10^5 cells per well in DMEM, and were allowed to grow for 72 h to reach confluency (verified using crystal violet staining). After 72 h, cells were serum starved for 6 h and pre-treated for 4 h with 10 μg/mL sRGMc, 10 μg/mL C3 Transferase or 10 μM Y27632. RGMa was then added to the wells for 18 h. The transwells were then transferred to a new plate containing 500 μl of HBSS and 200 μl 4-KDa Dextran-FITC (25 mg/ml; Sigma-Aldrich) was added to the upper chambers. Tracer diffusion across the EC monolayer was assessed in 30 min intervals for a period of 1.5 h. FITC signal, which represented the amount of extravasation through the monolayer was analyzed with using a microplate reader.

Neogenin = biological target: T1, Neogenin (Homo sapiens, UniProt Q92859); experiment: In vitro competition binding assay (AP-tagged proteins); details: pre-incubation of sRGMa with Ec-Neogenin-AP; compared to BSA control
T1 construct: His-tagged proteins (2.5 μg/mL of extracellular-Neogenin or sRGMa or sRGMc) were then coated onto each well; His tag (coated format); Alkaline phosphatase (AP) fusion (solution format, Ec-Neogenin-AP); made in house
T1 sequence (Q92859 34-1105 limits assumed): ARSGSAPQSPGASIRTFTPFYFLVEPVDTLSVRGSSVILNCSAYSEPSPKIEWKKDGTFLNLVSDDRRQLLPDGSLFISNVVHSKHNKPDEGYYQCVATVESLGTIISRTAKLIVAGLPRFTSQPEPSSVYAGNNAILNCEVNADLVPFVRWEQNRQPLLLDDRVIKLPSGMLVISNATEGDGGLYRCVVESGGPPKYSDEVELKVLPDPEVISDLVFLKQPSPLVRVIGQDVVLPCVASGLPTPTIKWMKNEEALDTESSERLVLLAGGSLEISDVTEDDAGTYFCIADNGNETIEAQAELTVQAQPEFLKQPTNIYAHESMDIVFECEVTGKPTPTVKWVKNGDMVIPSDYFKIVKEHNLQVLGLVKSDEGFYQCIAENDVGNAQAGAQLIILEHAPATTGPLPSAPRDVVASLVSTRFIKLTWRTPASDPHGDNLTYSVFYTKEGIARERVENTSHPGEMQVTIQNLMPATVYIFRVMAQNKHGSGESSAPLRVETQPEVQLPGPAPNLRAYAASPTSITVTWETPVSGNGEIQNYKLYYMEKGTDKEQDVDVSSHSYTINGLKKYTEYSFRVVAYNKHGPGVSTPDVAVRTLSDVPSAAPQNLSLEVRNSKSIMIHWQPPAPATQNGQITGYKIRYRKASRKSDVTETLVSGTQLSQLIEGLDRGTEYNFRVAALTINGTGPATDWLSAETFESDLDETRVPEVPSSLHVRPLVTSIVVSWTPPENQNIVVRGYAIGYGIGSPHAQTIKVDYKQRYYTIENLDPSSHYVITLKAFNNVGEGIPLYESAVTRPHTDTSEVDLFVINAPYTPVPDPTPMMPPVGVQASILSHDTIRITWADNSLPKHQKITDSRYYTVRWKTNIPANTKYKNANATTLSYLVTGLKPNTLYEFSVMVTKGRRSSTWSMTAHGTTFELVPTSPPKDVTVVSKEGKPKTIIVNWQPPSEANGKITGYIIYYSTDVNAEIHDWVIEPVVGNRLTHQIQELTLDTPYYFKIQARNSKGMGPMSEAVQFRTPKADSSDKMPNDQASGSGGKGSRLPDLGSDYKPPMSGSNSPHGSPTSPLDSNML
Method: (C) Binding of Neogenin to bovine serum albumin (Neogenin+BSA), to RGMa (Neogenin+RGMa), and to RGMc (Neogenin+RGMc) in RGMa-AP and in RGMc-AP. Constructs overexpressing His-tagged sRGMa, sRGMc and the extracellular domains of Neogenin (Ec-Neogenin) were coated onto Poly-L-Lysine coated wells. Alkaline Phosphatase (AP)-tagged proteins (EC-Neogenin or RGMa or RGMc) were then added to each well and incubated at 37° C. for 1 h. Each well was washed and equilibrated with AP developing buffer (100 mM NaHCO3, 1 mM MgCl2). The reaction was initiated using AP developing buffer supplemented with p-nitrophenyl phosphate and then stopped following color development by adding 50 μl (0.1M) NaOH. The absorbance of each reaction was measured using a microplate autoreader at 405 nm as described in the Examples. (D) Binding of Neogenin-AP to bovine serum albumin (Neogenin-AP+BSA), to RGMa (Neogenin-AP+RGMa), and to RGMc (Neogenin-AP+RGMc). Competition assay was performed as described in the Examples and above but in which the constructs were reversed.
Using a 96-well microtiter plate (Corning), wells coated with 100 μl (10 μg/mL) of Poly-L-Lysine (Sigma-Aldrich) incubated at 4° C. overnight were then washed 3× with 100 μl of PBST (+0.02% Tween-20). […] The absorbance of each reaction was measured using a microplate autoreader (BioTek EL311 AutoReader) at 405 nm.

[1] = test system: blood brain barrier of mice; experiment: BBB permeability, Texas red dye leakage by widefield imaging; type: in vivo, mouse; details: mice injected with RGMa alone; vs vehicle
Method: Mice were treated with RGMa (70 ug), RGMa (70 ug)+RGMc (70 ug), or Vehicle (1% BSA) 18 h prior to widefield imaging (100-300 ms exposure) prior to and following intravenous injection of Texas Red dye (0.5 mg) over time. […] (B) Quantification of the leakage of Texas Red dye (measured as the number of leakage sites/mm^2).
BBB integrity was assessed in mice treated with PBS (Vehicle), RGMa, RGMc, RGMa+ immunoglobulin domain of Neogenin (4Ig). Widefield imaging was then carried out under a Olympus microscope (BX6 1WI) prior to and following the injection of Texas red dye (100 uL, I.V., 5 mg/ml) using 100-300 ms exposure. Recording was performed from 0 min to 35 min following injection. Texas dye leakage was also assessed in RGMc knockout (KO) and wild type (WT) mice. The leakage of Texas-red dye was quantified by a blind experimenter measuring the number of leakage sites/mm^2. (A) Representative images of Texas red dye: PBS (Vehicle), RGMa, RGMa+RGMc and RGMa+4Ig (immunoglobulin domain of Neogenin). Quantification of the leakage of Texas Red dye in animals treated with (B) PBS (Vehicle), RGMa or RGMa+RGMc or in RGMc KO and WT mice or (C) PBS (Vehicle), RGMa, RGMa+RGMc or RGMa+4Ig.
Mice injected with BSA, RGMc, RGMa, or RGMa+RGMc. […] Leakage of Texas red dye was quantified by a blind experimenter measuring the number of leakage sites/mm^2. […]

[2] = test system: Claudin 5 in b.End3 cells; experiment: Claudin 5 expression in endothelial cells by Western blot; type: cell-based, mouse; details: incubation with RGM proteins
Method: Cells were pretreated for 6 h with PBS, RGMc, RGMa or RGMc+RGMa. Western blotting was performed on the lysates with Claudin-5 and GAPDH antibodies.
Next, the BBB permeability was assessed by injecting mice with BSA, RGMa, RGMa plus RGMc and subsequently followed by assessment of Texas dye leakage using widefield imaging as an indication of BBB integrity. […] Thus, Claudin 5 expression following RGMa/c treatments of murine-derived brain endothelial cells (b.End3) was studied. B.En3 cells were grown up to 80% confluency and were treated with overnight incubation with RGM proteins.

| Molecule | extravasation of Dextran-FITC in sRGMa-treated cells (b.end3 cells) | reduction of binding intensity of RGMc to Neogenin (Neogenin) | BBB integrity, leakage of Texas Red dye [1] | extravasation of Dextran-FITC (b.end3 cells; sRGMa alone, vs vehicle-treated wells) | reduction in Claudin 5 levels [2] |
| --- | --- | --- | --- | --- | --- |
| C[C@@H](N)[C@H]1CC[C@H](C(=O)Nc2ccncc2)CC1 [Y27632, reference compound] | reduced | – | – | – | – |
| C3 Transferase [reference compound] | reduced | – | – | – | – |
| B1 | – | 3 fold | significantly disrupted BBB integrity; also recorded: significantly elevated leakage | increased | 2 fold |
